Measurements taken from patent publication US20120101037A1 (Hoffmann-La Roche, published 2012).
Non-standard residues stand in square brackets, D forms with d. Groups on a side chain read outwards from the residue. Primed or numbered codes have the meaning given here. *: point of attachment. dPhe(3,5-F2) = N[C@H](Cc1cc(F)cc(F)c1)C(=O)O; dPhe(3-Cl) = N[C@H](Cc1cccc(Cl)c1)C(=O)O; dPhe(4-Cl) = N[C@H](Cc1ccc(Cl)cc1)C(=O)O; dPhe(2-Cl) = N[C@H](Cc1ccccc1Cl)C(=O)O; dPhe(3-F) = N[C@H](Cc1cccc(F)c1)C(=O)O; Desaminotyrosyl = O=C(CCc1ccc(O)cc1)*; dPhe(2-F) = N[C@H](Cc1ccccc1F)C(=O)O; dPhe(3,4,5-F3)′ = not defined here; Hydrocinnamoyl = O=C(CCc1ccccc1)*; SSA = succinimidyl succinamide

Molecular target: T1, human GIPR (glucose-dependent insulinotropic polypeptide receptor) (human, UniProt P48546 22-466)
T1 sequence (looked up): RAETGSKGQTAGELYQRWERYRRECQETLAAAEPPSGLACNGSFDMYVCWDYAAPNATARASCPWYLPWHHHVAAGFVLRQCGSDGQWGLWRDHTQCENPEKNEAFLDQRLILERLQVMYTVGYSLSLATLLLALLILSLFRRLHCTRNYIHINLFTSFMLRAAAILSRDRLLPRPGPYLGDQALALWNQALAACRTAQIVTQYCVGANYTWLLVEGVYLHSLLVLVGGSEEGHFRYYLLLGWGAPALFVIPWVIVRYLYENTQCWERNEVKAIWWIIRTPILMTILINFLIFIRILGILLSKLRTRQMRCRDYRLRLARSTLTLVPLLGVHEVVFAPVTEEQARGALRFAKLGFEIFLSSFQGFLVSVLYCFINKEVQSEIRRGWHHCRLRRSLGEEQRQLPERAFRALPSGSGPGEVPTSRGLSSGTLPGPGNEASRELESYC
Assay: cell-based or functional assay

**Q.** Ac-[dPhe(3-F)]AEGTFISDYSIAMDKIHQQDFVNWLLAQK-NH2 (also: 1:2 TFA salt) was tested. Which “% activation of cAMP” value did it give?
**A.** 98%

**Q.** And the “EC50 (nMol), cAMP” value?
**A.** 0.058 nmol

**Q.** How did the “% activation of cAMP” value turn out when Ac-[dPhe(4-Cl)]AEGTFISDYSIAMDKIHQQDFVNWLLAQK-NH2 (also: 1:2 TFA salt) was run?
**A.** 106%

**Q.** What about the “EC50 (nMol), cAMP” value of the same binder?
**A.** 0.025 nmol

**Q.** With Ac-YAEGTFISDYSIAMDKIHQQDFVNWLLAQK-NH2 (also: 1:2 TFA salt) as the binder, how does the “% activation of cAMP” value read?
**A.** 100%

**Q.** Which results are given for Ac-[dPhe(3,5-F2)]AEGTFISDYSIAMDKIHQQDFVNWLLAQK-NH2 (also: 1:2 TFA salt)?
**A.** % activation of cAMP: 99.6%; EC50 (nMol), cAMP: 0.003 nmol

**Q.** How did the “% activation of cAMP” value turn out when Ac-[dY]AEGTFISDYSIAMDKIHQQDFVNWLLAQK-NH2 (also: 1:2 TFA salt) was run?
**A.** 102%

**Q.** And the “EC50 (nMol), cAMP” value?
**A.** 0.0007 nmol

B1: Ac-(D)-3-Pya-Ala-Glu-Gly-Thr-Phe-Ile-Ser-Asp-Tyr-Ser-Ile-Ala-Met-Asp-Lys-Ile-His-Gln-Gln-Asp-Phe-Val-Asn-Trp-Leu-Leu-Ala-Gln-Lys-NH2 (peptide)
peptide: AAEGTFISDYSIAMDKIHQQDFVNWLLAQK
modifications: position 1 is acetylated D-3-pyridylalanine (Ac-(D)3Pya); C-terminal amide (NH2)
**Q.** How did the “% activation of cAMP” value turn out when B1 was run?
**A.** 102%

**Q.** What about the “EC50 (nMol), cAMP” value of the same binder?
**A.** 0.08 nmol

**Q.** Ac-[dPhe(2-F)]AEGTFISDYSIAMDKIHQQDFVNWLLAQK-NH2 (also: 1:2 TFA salt) was tested. Which “% activation of cAMP” value did it give?
**A.** 99.8%

**Q.** What about the “EC50 (nMol), cAMP” value of the same binder?
**A.** 0.0075 nmol

**Q.** With Ac-[dPhe(2-Cl)]AEGTFISDYSIAMDKIHQQDFVNWLLAQK-NH2 (also: 1:2 TFA salt) as the binder, how does the “% activation of cAMP” value read?
**A.** 104%

**Q.** And the “EC50 (nMol), cAMP” value?
**A.** 0.121 nmol

**Q.** For Ac-[dY]AEGTFISDYSIAMDAIHQQDFVNWLLAQK([SSA-PEGm 20,000])-NH2, which “% activation of cAMP” value is on record?
**A.** 102%

**Q.** And the “EC50 (nMol), cAMP” value?
**A.** 0.0049 nmol

**Q.** What does the source list for Ac-[dY]AEGTFISDYSIAMDAIHQQDFVNWLLAQK([SSA-PEGm 30,000])-NH2?
**A.** % activation of cAMP: 101%; EC50 (nMol), cAMP: 0.0017 nmol

**Q.** Which “% activation of cAMP” value does the source give for Ac-[dPhe(3,4,5-F3)′]AEGTFISDYSIAMDKIHQQDFVNWLLAQK-NH2 (also: 1:2 TFA salt) here?
**A.** 100%

**Q.** And the “EC50 (nMol), cAMP” value?
**A.** 0.104 nmol

**Q.** How did the “% activation of cAMP” value turn out when Ac-[dPhe(3-Cl)]AEGTFISDYSIAMDKIHQQDFVNWLLAQK-NH2 (also: 1:2 TFA salt) was run?
**A.** 106%

**Q.** What about the “EC50 (nMol), cAMP” value of the same binder?
**A.** 0.072 nmol

**Q.** For [Hydrocinnamoyl]AEGTFISDYSIAMDKIHQQDFVNWLLAQK-NH2 (also: 1:2 TFA salt), which “% activation of cAMP” value is on record?
**A.** 101%

**Q.** What about the “EC50 (nMol), cAMP” value of the same binder?
**A.** 0.797 nmol

**Q.** With Ac-[dY]AEGTFISDYSIAMDAIHQQDFVNWLLAQK([SSA-PEGm 12,000])-NH2 as the binder, how does the “% activation of cAMP” value read?
**A.** 100%

**Q.** What about the “EC50 (nMol), cAMP” value of the same binder?
**A.** 0.0022 nmol

**Q.** Which results are given for Ac-[dW]AEGTFISDYSIAMDKIHQQDFVNWLLAQK-NH2 (also: 1:2 TFA salt)?
**A.** % activation of cAMP: 102%; EC50 (nMol), cAMP: 0.1 nmol

**Q.** [Desaminotyrosyl]AEGTFISDYSIAMDKIHQQDFVNWLLAQK-NH2 (also: 1:2 TFA salt) was tested. Which “% activation of cAMP” value did it give?
**A.** 103%

**Q.** What about the “EC50 (nMol), cAMP” value of the same binder?
**A.** 0.095 nmol

**Q.** Ac-[dF]AEGTFISDYSIAMDKIHQQDFVNWLLAQK-NH2 (also: 1:2 TFA salt) was tested. Which “% activation of cAMP” value did it give?
**A.** 102%

**Q.** What about the “EC50 (nMol), cAMP” value of the same binder?
**A.** 0.685 nmol

**Q.** What does the source list for Ac-[dY]AEGTFISDYSIAMDAIHQQDFVNWLLAQK-NH2 (also: 1:1 TFA salt)?
**A.** % activation of cAMP: 100%; EC50 (nMol), cAMP: 0.0005 nmol
